Target: HuCD7-TR (human CD7 containing an internal deletion of the 36 amino acid tandem repeat) (human) (UniProt P09564)
Experiment: HuK12-Fc on transfected COS-1 cells, 125I anti-human Fc, phosphorimager

Sequence of HuCD7-TR (human CD7 containing an internal deletion of the 36 amino acid tandem repeat) (human) (P09564 other isoform, or with tags, fused parts or gaps limits assumed): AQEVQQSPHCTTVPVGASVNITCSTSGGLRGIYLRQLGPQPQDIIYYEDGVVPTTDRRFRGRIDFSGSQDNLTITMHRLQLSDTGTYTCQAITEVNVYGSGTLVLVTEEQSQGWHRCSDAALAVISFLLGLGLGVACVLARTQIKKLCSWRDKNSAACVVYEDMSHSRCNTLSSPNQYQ

fold less relative binding than to full length HuCD7: 10 fold
B1: human K12-Fc fusion protein (extracellular domain of human K12 fused to the Fc portion of human IgG1) (Fc fusion, not shown: a dimerising Fc or GST)
chain: QNEGWDSPICTEGVVSVSWGENTVMSCNISNAFSHVNIKLRAHGQESAIFNEVAPGYFSRDGWQLQVQGGVAQLVIKGARDSHAGLYMWHLVGHQRNNRQVTLEVSGAEPQSAPDTG

Reference: patent US20020141999A1
